± gives the standard error.
Test: background-corrected fluorescence of 3'-dye-labeled ssDNA relative to brightest sequence (3'-GCGCG) (fraction); higher = brighter dye fluorescence (less quenching)
In short: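 Light-directed phosphoramidite synthesis on glass slides produced single-stranded DNA carrying a 3' Cy3 or Cy5 dye next to each of 1024 permuted pentamers. After a 2 h acetonitrile wash at r.t., arrays were scanned at 532 or 635 nm both before and after overnight deprotection in ethylenediamine/ethanol. Every value is the mean of 10 features per array over at least 3 syntheses. Fluorescence had unlabeled-oligo background subtracted and was scaled to the brightest sequence.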

Row | Sequence | background-corrected fluorescence (dye: Cy3 (3' terminal)) | background-corrected fluorescence (dye: Cy5 (3' terminal))
1 | TTTTTTGCTCAGCATGCTGCTTTTTTTTTTTTTTTAGTAA [AATGA] | 0.563 ± 0.016 | 0.493 ± 0.037
2 | TTTTTTGCTCATCAGCAGCATTTTTTTTTTTTTTTAGGTT [TTGGA] | 0.584 ± 0.022 | 0.464 ± 0.08
3 | TTTTTTGCTCATCAGCATCATTTTTTTTTTTTTTTAGGTG [GTGGA] | 0.585 ± 0.025 | 0.482 ± 0.017
4 | TTTTTTGCTCATCAGCATGATTTTTTTTTTTTTTTAGGTC [CTGGA] | 0.459 ± 0.014 | 0.376 ± 0.019
5 | TTTTTTGCTCATCAGCATGCTTTTTTTTTTTTTTTAGGTA [ATGGA] | 0.564 ± 0.027 | 0.465 ± 0.06
6 | TTTTTTGCTCATCATCAGCATTTTTTTTTTTTTTTAGGGT [TGGGA] | 0.7155 ± 0.0051 | 0.587 ± 0.027
7 | TTTTTTGCTCATCATCATCATTTTTTTTTTTTTTTAGGGG [GGGGA] | 0.69 ± 0.019 | 0.591 ± 0.028
8 | TTTTTTGCTCATCATCATGATTTTTTTTTTTTTTTAGGGC [CGGGA] | 0.598 ± 0.023 | 0.478 ± 0.064
9 | TTTTTTGCTCATCATCATGCTTTTTTTTTTTTTTTAGGGA | 0.707 ± 0.036 | 0.642 ± 0.037
10 | TTTTTTGCTCATCATGAGCATTTTTTTTTTTTTTTAGGCT [TCGGA] | 0.596 ± 0.014 | 0.435 ± 0.028
11 | TTTTTTGCTCATCATGATCATTTTTTTTTTTTTTTAGGCG [GCGGA] | 0.633 ± 0.026 | 0.521 ± 0.049
12 | TTTTTTGCTCATCATGATGATTTTTTTTTTTTTTTAGGCC [CCGGA] | 0.479 ± 0.037 | 0.368 ± 0.064
13 | TTTTTTGCTCATCATGATGCTTTTTTTTTTTTTTTAGGCA [ACGGA] | 0.584 ± 0.0074 | 0.463 ± 0.017
14 | TTTTTTGCTCATCATGCGCATTTTTTTTTTTTTTTAGGAT | 0.637 ± 0.019 | 0.463 ± 0.028
15 | TTTTTTGCTCATCATGCTCATTTTTTTTTTTTTTTAGGAG [GAGGA] | 0.597 ± 0.023 | 0.507 ± 0.034
16 | TTTTTTGCTCATCATGCTGATTTTTTTTTTTTTTTAGGAC [CAGGA] | 0.479 ± 0.014 | 0.383 ± 0.033
17 | TTTTTTGCTCATCATGCTGCTTTTTTTTTTTTTTTAGGAA [AAGGA] | 0.648 ± 0.0081 | 0.559 ± 0.021

Row | Sequence | background-corrected fluorescence (dye: Cy3 (3' terminal)) | background-corrected fluorescence (dye: Cy5 (3' terminal))
18 | TTTTTTGCTCATGAGCAGCATTTTTTTTTTTTTTTAGCTT [TTCGA] | 0.551 ± 0.021 | 0.419 ± 0.041
19 | TTTTTTGCTCATGAGCATCATTTTTTTTTTTTTTTAGCTG [GTCGA] | 0.524 ± 0.005 | 0.424 ± 0.058
20 | TTTTTTGCTCATGAGCATGATTTTTTTTTTTTTTTAGCTC [CTCGA] | 0.408 ± 0.042 | 0.323 ± 0.024
21 | TTTTTTGCTCATGAGCATGCTTTTTTTTTTTTTTTAGCTA [ATCGA] | 0.512 ± 0.0099 | 0.4 ± 0.019
22 | TTTTTTGCTCATGATCAGCATTTTTTTTTTTTTTTAGCGT [TGCGA] | 0.679 ± 0.022 | 0.52 ± 0.023
23 | TTTTTTGCTCATGATCATCATTTTTTTTTTTTTTTAGCGG [GGCGA] | 0.716 ± 0.013 | 0.577 ± 0.042
24 | TTTTTTGCTCATGATCATGATTTTTTTTTTTTTTTAGCGC [CGCGA] | 0.65 ± 0.023 | 0.523 ± 0.038
25 | TTTTTTGCTCATGATCATGCTTTTTTTTTTTTTTTAGCGA | 0.708 ± 0.033 | 0.58 ± 0.052
26 | TTTTTTGCTCATGATGAGCATTTTTTTTTTTTTTTAGCCT [TCCGA] | 0.481 ± 0.039 | 0.394 ± 0.083
27 | TTTTTTGCTCATGATGATCATTTTTTTTTTTTTTTAGCCG [GCCGA] | 0.554 ± 0.018 | 0.437 ± 0.029
28 | TTTTTTGCTCATGATGATGATTTTTTTTTTTTTTTAGCCC [CCCGA] | 0.393 ± 0.022 | 0.304 ± 0.018
29 | TTTTTTGCTCATGATGATGCTTTTTTTTTTTTTTTAGCCA [ACCGA] | 0.5 ± 0.028 | 0.394 ± 0.023
30 | TTTTTTGCTCATGATGCGCATTTTTTTTTTTTTTTAGCAT [TACGA] | 0.519 ± 0.039 | 0.405 ± 0.032
31 | TTTTTTGCTCATGATGCTCATTTTTTTTTTTTTTTAGCAG [GACGA] | 0.574 ± 0.018 | 0.42 ± 0.02
32 | TTTTTTGCTCATGATGCTGATTTTTTTTTTTTTTTAGCAC [CACGA] | 0.415 ± 0.019 | 0.328 ± 0.012
33 | TTTTTTGCTCATGATGCTGCTTTTTTTTTTTTTTTAGCAA [AACGA] | 0.579 ± 0.03 | 0.427 ± 0.03
34 | TTTTTTGCTCATGCGCAGCATTTTTTTTTTTTTTTAGATT | 0.565 ± 0.035 | 0.41 ± 0.018
